# Bridge positions count the residues as written; N and C are the ends. Ends that are not written are not given here.
# B1: F1-2 (peptide)
# chain: MDCLASVEALKWCMYG
# modifications: disulfide 3-13 (inferred)
# B2: F1-1 (peptide)
# chain: RNCFESVAALRRCMYG
# modifications: disulfide 3-13 (inferred)
# B3: F1-3 (peptide)
# chain: FECLTSVEALRGCMYG
# modifications: disulfide 3-13 (inferred)
# B4: F1-C (peptide)
# chain: RNCFESVAALRRCMY
# B5: F2-N (peptide)
# chain: VRCVADAGGFLYCWA
# B6: F1-G (peptide)
# chain: SDCFESVEALRACMY
# B7: F2-F (peptide)
# chain: FRCAWELGWLYVLGL
# B8: F1-A (peptide)
# chain: HPCLESVGALKACMY
# B9: F2-J (peptide)
# chain: LRCAEDLGGYFYCWA
# B10: F2-I (peptide)
# chain: VTCAADALGFLYCWE
# B11: F2-E (peptide)
# chain: LGCASDLAGFWYCWA
# B12: F2-H (peptide)
# chain: WRCVDDLGGFQYCWA
# B13: F1-B (peptide)
# chain: FGCYESVAALRTCMY
# B14: F1-E (peptide)
# chain: SDCFGSVEALKMCMY
# B15: F2-D (peptide)
# chain: VRCAWDLGGRAYCWA
# B16: F2-K (peptide)
# chain: YRCATDLAGFSYCWA
# B17: F2-B (peptide)
# chain: VRCAYDAGGSRYCWE
# B18: F2-C (peptide)
# chain: VKCARDLSGFVYCWA
# B19: F1-F (peptide)
# chain: FECLTSVEALRGCMY
# B20: F2-M (peptide)
# chain: WRCAQDAGGWTYCWA
# B21: F1-D (peptide)
# chain: HDCFASVEALRRCMY
# B22: F1-H (peptide)
# chain: MDCLASVEALKWCMY
# B23: F2-G (peptide)
# chain: ASCVADAGGGGYCWD
# B24: F2-L (peptide)
# chain: ARCARDAGGFYYCWA
# B25: F2-A (peptide)
# chain: GGCASDLAGFRYCWE
# Target: T1, IGF-1 (human, UniProt P05019)
# T1 sequence (P05019 49-118): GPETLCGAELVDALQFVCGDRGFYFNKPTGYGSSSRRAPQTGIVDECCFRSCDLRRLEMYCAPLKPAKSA
# Assay: competition, IGF-1 phage vs IGFBP-3
row,Binder,IC50
1,B1,9.2 µM
2,B2,2.93 µM
3,B3,12.8 µM

# Target: T1, IGF-1
# Assay: competition, IGF-1 phage vs IGFBP-1
row,Binder,IC50
1,B1,15.5 µM
2,B2,1.4 µM
3,B3,11.7 µM

# Target: T1, IGF-1
# Assay: competition, 125I-IGF-1 binding to MCF-7 cells, 37C
row,Binder,IC50
1,B1,15.3 µM
2,B2,5.12 µM
3,B3,45.7 µM

# Target: T1, IGF-1
# Assay: competition phage ELISA
row,Binder,IC50
1,B4,0.108 µM
2,B5,1.18 µM
3,B6,0.968 µM
4,B7,209 µM
5,B8,0.401 µM
6,B9,2.12 µM
7,B10,1.03 µM
8,B11,0.554 µM
9,B12,0.319 µM
10,B13,0.301 µM
11,B14,0.711 µM
12,B15,249 µM
13,B16,1.45 µM
14,B17,24.6 µM
15,B18,10000 µM
16,B19,0.286 µM
17,B20,1.04 µM
18,B21,0.468 µM
19,B22,0.147 µM
20,B23,0.986 µM
21,B24,4.36 µM
22,B25,1.33 µM
